According to patent publication CN114437226A (HANGZHOU CYANINE INGENKANG BIOTECHNOLOGY LTD COMPANY, dated 2022):

Target: T1, 人白介素22(IL22)(Sino Biological) (human, UniProt Q9GZX6 34-179)
T1 sequence (looked up): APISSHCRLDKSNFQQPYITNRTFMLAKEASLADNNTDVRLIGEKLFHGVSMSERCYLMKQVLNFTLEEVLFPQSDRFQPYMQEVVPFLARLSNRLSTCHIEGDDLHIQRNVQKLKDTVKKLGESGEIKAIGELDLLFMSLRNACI
Test: ELISA, IL22-coated plate (Fig 11)

B1: FezHλ-ClaH(K218C)κ(F118C) (bispecific antibody, human IgG1, lambda)
heavy 1: QVQLVQSGAEVKKPGASVKVSCKASGYTFTNYYMHWVRQAPGQGLEWVGWINPYTGSAFYAQKFRGRVTMTRDTSISTAYMELSRLRSDDTAVYYCAREPEKFDSDDSDVWGRGTLVTVSSASTKGPSVFPLAPSSKSTSGGTAALGCLVKDYFPEPVTVSWNSGALTSGVHTFPAVLQSSGLYSLSSVVTVPSSSLGTQTYICNVNHKPSNTKVDKKVEPKSCDKTHTCPPCPAPELLGGPSVFLFPPKPKDTLMISRTPEVTCVVVDVSHEDPEVKFNWYVDGVEVHNAKTKPREEQYNSTYRVVSVLTVLHQDWLNGKEYKCKVSNKALPAPIEKTISKAKGQPREPQVYTLPPSREEMTKNQVSLSCAVKGFYPSDIAVEWESNGQPENNYKTTPPVLDSDGSFFLVSKLTVDKSRWQQGNVFSCSVMHEALHNRFTQKSLSLSPGHHHHHH
light 1: QAVLTQPPSVSGAPGQRVTISCTGSSSNIGAGYGVHWYQQLPGTAPKLLIYGDSNRPSGVPDRFSGSKSGTSASLAITGLQAEDEADYYCQSYDNSLSGYVFGGGTQLTVLGQPKAAPSVTLFPPSSEELQANKATLVCLISDFYPGAVTVAWKADSSPVKAGVETTTPSKQSNNKYAASSYLSLTPEQWKSHRSYSCQVTHEGSTVEKTVAPTECS
heavy 2: not shown
light 2: AIQMTQSPSSLSASVGDRVTITCQASQSINNELSWYQQKPGKAPKLLIYRASTLASGVPSRFSGSGSGTDFTLTISSLQPDDFATYYCQQGYSLRNIDNAFGGGTKVEIKRTVAAPSVFICPPSDEQLKSGTASVVCLLNNFYPREAKVQWKVDNALQSGNSQESVTEQDSKDSTYSLSSTLTLSKADYEKHKVYACEVTHQGLSSPVTKSFNRGEV
notes: also called K218C/F118C
Does B1 bind?
Result: binds

B2: FezHλ-ClaH(S132C)κ(F116C) (bispecific antibody, human IgG1, lambda)
heavy 1: QVQLVQSGAEVKKPGASVKVSCKASGYTFTNYYMHWVRQAPGQGLEWVGWINPYTGSAFYAQKFRGRVTMTRDTSISTAYMELSRLRSDDTAVYYCAREPEKFDSDDSDVWGRGTLVTVSSASTKGPSVFPLAPSSKSTSGGTAALGCLVKDYFPEPVTVSWNSGALTSGVHTFPAVLQSSGLYSLSSVVTVPSSSLGTQTYICNVNHKPSNTKVDKKVEPKSCDKTHTCPPCPAPELLGGPSVFLFPPKPKDTLMISRTPEVTCVVVDVSHEDPEVKFNWYVDGVEVHNAKTKPREEQYNSTYRVVSVLTVLHQDWLNGKEYKCKVSNKALPAPIEKTISKAKGQPREPQVYTLPPSREEMTKNQVSLSCAVKGFYPSDIAVEWESNGQPENNYKTTPPVLDSDGSFFLVSKLTVDKSRWQQGNVFSCSVMHEALHNRFTQKSLSLSPGHHHHHH
light 1: QAVLTQPPSVSGAPGQRVTISCTGSSSNIGAGYGVHWYQQLPGTAPKLLIYGDSNRPSGVPDRFSGSKSGTSASLAITGLQAEDEADYYCQSYDNSLSGYVFGGGTQLTVLGQPKAAPSVTLFPPSSEELQANKATLVCLISDFYPGAVTVAWKADSSPVKAGVETTTPSKQSNNKYAASSYLSLTPEQWKSHRSYSCQVTHEGSTVEKTVAPTECS
heavy 2: not shown
light 2: AIQMTQSPSSLSASVGDRVTITCQASQSINNELSWYQQKPGKAPKLLIYRASTLASGVPSRFSGSGSGTDFTLTISSLQPDDFATYYCQQGYSLRNIDNAFGGGTKVEIKRTVAAPSVCIFPPSDEQLKSGTASVVCLLNNFYPREAKVQWKVDNALQSGNSQESVTEQDSKDSTYSLSSTLTLSKADYEKHKVYACEVTHQGLSSPVTKSFNRGEV
notes: also called S132C/F116C
Does B2 bind?
Result: binds
